Experimental data from US20220112288A1 (published 2022).
Substitutions are numbered along the chain they refer to.

B1: 75110_12K21A (antibody, V domains shown)
VH: QVQLQQWGAGLLKPSETLSLTCAVSGGSFSGYYWSWIRQPPGKGLEWIGEINHSGSTNCNPSLKSRVTISVDTSNNQFSLKLSSVTAADTAVYYCARVLNYFDYWGQGTLVTVSS
VL: DIQMTQSPSSVSASVGDRVTITCRASPDIANWLAWYQQKPGKAPELLIYAASSLQSGVPSRFSGSGSGTDFTLTISSLQPEDFATYFCQQANSFPLTFGGGTKVESK
notes: Tested as non-clonal AlivaMab Mouse Kappa hybridoma supernatant: human variable domains and human kappa, mouse Fc
B2: 75110_13P21A (antibody, IgG1, V domains shown)
VH: B1 VH
VL: B1 VL
notes: as for B1
B3: 75110_13C13A (antibody, IgG1, V domains shown)
VH: B1 VH with N75K, V92M, Y101F
VL: B1 VL with S7T, D28G, A30S
notes: as for B1
B4: 75110_12C19A (antibody, IgG1, V domains shown)
VH: EVQLVESGGGLVQPGGSLRLSCAASGFTFSSYWMSWVRQAPGKGLEWVANIKEDGSDKYYVDSVKGRFTISRDNAKNSLYLQMNSLRAEDTAVHYCVREGGQWLALDYWGQGTLVTVSS
VL: DIQMTQSPSSVSGSVGDRVTITCRASQGISSWLAWYQQKPGKAPKLLIYGASSLQSGVPSRFSGSGSGTDFTLTISSLQPEDFVTYYCQQANSFPWTFGQGTKVEIK
notes: as for B1
B5: 75110_13P22A (antibody, IgG1, V domains shown)
VH: B1 VH with V24A, S25Y, P40S, H53Q, S56N, C59Y, V71A, N75K, Y101W, T109I
VL: B4 VL with G13A, S31D, P40S, K45D, Y49F, G50A, V84A, W96Y, V104L
notes: as for B1
B6: 75110_04F22A (antibody, V domains shown)
VH: EVQLVESGGGLVQPGGSLRLSCAASGFTFSSYDIHWVRQATGKGLEWVSTIGTAGDTYYPGSVKGRFTISRENAKNSLYLQMNSLRAGDTAVYYCARGGYYYYGMDVWGQGTTVTVSS
VL: EIVLTQSPGTLSLSPGERATLSCRASQSVYSSYLAWYQQKPGQAPRLLIYGASSRATGIPDRFSGSGSGTDFTLTISRLEPEDFAVYYCQQFGTSPFTFGPGTKVDIK
notes: as for B1
B7: 75110_01J17A (antibody, IgG1, V domains shown)
VH: B6 VH with I34M, A40G, G55D, K75E, Y100D
VL: B6 VL with T5A, S31I, S77T, T94S, I107F
notes: as for B1
B8: 75110_07E04A (antibody, IgG1, V domains shown)
VH: B6 VH with A24V, I34M, N76K, S77F
VL: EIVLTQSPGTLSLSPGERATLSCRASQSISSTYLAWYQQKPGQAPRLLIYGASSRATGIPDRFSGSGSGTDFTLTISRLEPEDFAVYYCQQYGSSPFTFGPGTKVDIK
notes: as for B1
B9: 75110_04P06A (antibody, IgG1, V domains shown)
VH: B6 VH with S31N, I34M, Y100D
VL: B6 VL with G9D, V29L, Y30S, S32V, S77N, A85V, F92Y, T94S
notes: as for B1
B10: 75110_01K10A (antibody, V domains shown)
VH: B6 VH with G10A, S30R, S31N, I34M, Y100D
VL: B6 VL with G9D, V29L, Y30S, S32V, S66T, F92Y, T94S
notes: as for B1
B11: 75110_05K11A (antibody, IgG1, V domains shown)
VH: B6 VH with I34M, A40P, G61A, Y100F
VL: B6 VL with A19V, Y30S, S31N, S32T, A85V, F92H, T94S
notes: as for B1
B12: 75110_01N04A (antibody, IgG1, V domains shown)
VH: B6 VH with S31N, I34M, Y100D, Y101F, M105L
VL: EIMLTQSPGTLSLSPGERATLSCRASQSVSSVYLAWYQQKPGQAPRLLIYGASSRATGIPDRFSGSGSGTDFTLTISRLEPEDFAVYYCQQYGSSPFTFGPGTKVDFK
notes: as for B1
B13: 75110_01G11A (antibody, IgG1, V domains shown)
VH: B6 VH with I34M, K75R, Y79F, Y100D
VL: B6 VL with S14F, S28N, V29T, S54N, F92H
notes: as for B1

Biological target: T1, human CD4 on cells (SKW3 cells; human PBMCs) (human, UniProt P01730 26-458)
T1 construct: whole, on cells; SKW3 CD4 knockout cells served as the negative cell line; also called hCD4
Experiment: FACS binning on SKW3 cells pre-incubated with supernatant; competitor RPA-T4-PE-Dazzle 594, its signal read; background 783, max binding 15000

Row | SKW3 FACS Binning RPA-T4-PE-Dazzle 594 | Binder
1 | 10900 | B1
2 | 11900 | B2
3 | 20800 | B3
4 | 11900 | B4
5 | 19000 | B5
6 | 2290 | B6
7 | 1950 | B7
8 | 2420 | B8
9 | 2190 | B9
10 | 1510 | B10
11 | 2190 | B11
12 | 2240 | B12
13 | 2160 | B13

Biological target: T1, human CD4 on cells (SKW3 cells; human …)
Experiment: FACS confirmation, supernatant on human PBMCs, anti-mouse Fc 647, CD4+ gate

Row | PBMCs, anti-mFc 647 CD4+ gate - RL1 Binding | Binder
14 | 335000 | B1
15 | 274000 | B2
16 | 99600 | B3
17 | 341000 | B4
18 | 215000 | B5
19 | 286000 | B6
20 | 280000 | B7
21 | 206000 | B8
22 | 292000 | B9
23 | 283000 | B10
24 | 267000 | B11
25 | 210000 | B12
26 | 244000 | B13

Biological target: T1, human CD4 on cells (SKW3 cells; human …)
Experiment: FACS confirmation, supernatant on SKW3 WT cells, anti-mouse Fc 647; background gMFI 3300

Row | SKW3 WT anti-mFc 647, gMFI [gMFI] | Binder
27 | 25000 | B1
28 | 30900 | B2
29 | 23900 | B3
30 | 29300 | B4
31 | 18200 | B5
32 | 26900 | B6
33 | 31600 | B7
34 | 22000 | B8
35 | 24500 | B9
36 | 24300 | B10
37 | 35900 | B11
38 | 28000 | B12
39 | 19200 | B13

Biological target: T2, huCD4-HIS (human, UniProt P01730 26-390, limits assumed)
T2 construct: the ELISA binning is not described in the text of this stretch
Experiment: ELISA binning, competitor Ibalizumab; 100 ng/mL huCD4-HIS, anti-HIS HRP detection; background 45, max binding 3000000

Row | Ibalizumab ELISA binning signal | Binder
40 | 1.41e+06 | B1
41 | 678000 | B2
42 | 1.17e+06 | B3
43 | 1.51e+06 | B4
44 | 1.16e+06 | B5
45 | 748000 | B6
46 | 755000 | B7
47 | 1.73e+06 | B8
48 | 1.22e+06 | B9
49 | 890000 | B10
50 | 1.18e+06 | B11
51 | 1.04e+06 | B12
52 | 495000 | B13

Biological target: T1, human CD4 on cells (SKW3 cells; human …)
Experiment: FACS binning on SKW3 cells pre-incubated with supernatant; competitor OKT4a read with anti-human A647 secondary; background 5000, max binding 35000

Row | SKW3 FACS Binning OKT4a anti-hu A647 Secondary | Binder
53 | 8240 | B1
54 | 6870 | B2
55 | 5500 | B3
56 | 7140 | B4
57 | 6220 | B5
58 | 40200 | B6
59 | 37700 | B7
60 | 31300 | B8
61 | 37400 | B9
62 | 30000 | B10
63 | 37600 | B11
64 | 38100 | B12
65 | 30100 | B13

Biological target: T1, human CD4 on cells (SKW3 cells; human …)
Experiment: FACS binning on SKW3 cells pre-incubated with supernatant; competitor OKT4-A488, its signal read; background 2163, max binding 8200

Row | SKW3 FACS Binning OKT4 A488 | Binder
66 | 10000 | B1
67 | 9420 | B2
68 | 9760 | B3
69 | 9580 | B4
70 | 9370 | B5
71 | 9940 | B6
72 | 10000 | B7
73 | 9940 | B8
74 | 10100 | B9
75 | 10800 | B10
76 | 9730 | B11
77 | 9720 | B12
78 | 10100 | B13

Biological target: T1, human CD4 on cells (SKW3 cells; human …)
Experiment: FACS primary screen, non-clonal hybridoma supernatant, SKW3 vs SKW3 CD4 knockout cells, anti-human kappa FITC

Row | SKW3 WT vs KO anti-hKappa-FITC [fold] | Binder
79 | 2.8 | B1
80 | 2.4 | B2
81 | 3.1 | B3
82 | 2.3 | B4
83 | 2.8 | B5
84 | 1.8 | B6
85 | 2.1 | B7
86 | 1.8 | B8
87 | 1.6 | B9
88 | 2.2 | B10
89 | 1.8 | B11
90 | 1.9 | B12
91 | 2 | B13

Biological target: T1, human CD4 on cells (SKW3 cells; human …)
Experiment: FACS confirmation, supernatant on SKW3 WT cells, anti-human kappa FITC; background gMFI 2500

Row | SKW3 WT anti-hu Kappa FITC, gMFI [gMFI] | Binder
92 | 5620 | B1
93 | 7580 | B2
94 | 7240 | B3
95 | 6850 | B4
96 | 5910 | B5
97 | 5580 | B6
98 | 5780 | B7
99 | 6360 | B8
100 | 5600 | B9
101 | 5940 | B10
102 | 6700 | B11
103 | 5640 | B12
104 | 5000 | B13

Biological target: T1, human CD4 on cells (SKW3 cells; human …)
Experiment: FACS confirmation, supernatant on human PBMCs, anti-mouse Fc 647, CD4+ percent of viable cells

Row | Binder | PBMCs, anti-mFc 647 CD4+ Percent Bound of Viable [%]
105 | B1 | 30
106 | B2 | 31
107 | B3 | 6
108 | B4 | 31
109 | B5 | 27
110 | B6 | 32
111 | B7 | 32
112 | B8 | 30
113 | B9 | 31
114 | B10 | 30
115 | B11 | 31
116 | B12 | 33
117 | B13 | 30

Biological target: T1, human CD4 on cells (SKW3 cells; human …)
Experiment: FACS primary screen, non-clonal hybridoma supernatant, SKW3 vs SKW3 CD4 knockout cells, anti-mouse Fc A647

Row | SKW3 WT vs KO anti-mFc-647 [fold] | Binder
118 | 6.6 | B1
119 | 5.8 | B2
120 | 6.8 | B3
121 | 7.2 | B4
122 | 6.4 | B5
123 | 3.6 | B6
124 | 4.3 | B7
125 | 2.9 | B8
126 | 3.9 | B9
127 | 4.6 | B10
128 | 4 | B11
129 | 3.7 | B12
130 | 3.4 | B13
